Measurements taken from patent publication US6432702 (NEW YORK UNIVERSITY, dated 2002).
Values belong to the binder of their own block, whether it stands above or below them.

Key:
FGF receptor-1 (flg) [1] = target: T1, FGF receptor-1 (flg) (UniProt P16092 22-822, limits assumed); experiment: Scatchard analysis, 125I-labeled ligand on CHO 4-1 cells expressing FGF receptor-1, 4 C
T1 construct: whole, on cells; also called flg receptor; CHO 4-1 cells
Procedure: Scatchard analysis of the binding of K-FGF and K-FGF-140 was performed on CHO 4-1 cells expressing the FGF receptor-1 as follows. Cells at 4.8×10^5/35mm dish were incubated at 4° C. with DMEM containing 0.15% gelatin, […].
In FIG. 7, Scatchard analysis of binding to high affinity receptors gave a straight line, indicating a single class of binding sites.

FGF receptor-1 (flg) [2] = target: T1, FGF receptor-1 (flg); experiment: competition with 125I-bFGF on CHO 4-1 cells expressing FGF receptor-1
FGF receptor-2 (bek) = target: T2, FGF receptor-2 (bek) (UniProt P21803 22-821, limits assumed); experiment: competition with 125I-bFGF on CHO 3-7.5 cells expressing FGF receptor-2
T2 construct: whole, on cells; also called CHO 3-7.5 cells
T2 sequence (P21803 22-821 limits assumed): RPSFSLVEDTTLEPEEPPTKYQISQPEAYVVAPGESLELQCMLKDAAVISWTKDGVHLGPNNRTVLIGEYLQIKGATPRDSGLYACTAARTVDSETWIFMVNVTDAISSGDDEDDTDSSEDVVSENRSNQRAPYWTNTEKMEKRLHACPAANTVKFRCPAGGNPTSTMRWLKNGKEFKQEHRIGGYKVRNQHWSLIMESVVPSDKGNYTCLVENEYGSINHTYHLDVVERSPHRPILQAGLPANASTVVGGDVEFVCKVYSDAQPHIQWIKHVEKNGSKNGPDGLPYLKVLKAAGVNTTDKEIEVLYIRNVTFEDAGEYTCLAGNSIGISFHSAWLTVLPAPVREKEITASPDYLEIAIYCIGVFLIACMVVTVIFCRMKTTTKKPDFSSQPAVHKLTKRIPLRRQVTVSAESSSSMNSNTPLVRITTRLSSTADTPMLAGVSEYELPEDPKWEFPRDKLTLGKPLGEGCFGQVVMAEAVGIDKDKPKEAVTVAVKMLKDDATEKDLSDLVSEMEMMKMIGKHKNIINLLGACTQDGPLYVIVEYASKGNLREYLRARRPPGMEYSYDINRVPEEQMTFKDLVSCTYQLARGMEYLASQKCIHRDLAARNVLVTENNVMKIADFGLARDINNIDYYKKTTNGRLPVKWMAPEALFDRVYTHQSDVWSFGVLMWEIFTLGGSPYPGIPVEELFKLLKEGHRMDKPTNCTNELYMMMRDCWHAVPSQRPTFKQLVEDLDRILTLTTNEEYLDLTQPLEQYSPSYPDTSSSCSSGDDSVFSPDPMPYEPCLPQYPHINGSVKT

T1 sequence (P16092 22-822 limits assumed): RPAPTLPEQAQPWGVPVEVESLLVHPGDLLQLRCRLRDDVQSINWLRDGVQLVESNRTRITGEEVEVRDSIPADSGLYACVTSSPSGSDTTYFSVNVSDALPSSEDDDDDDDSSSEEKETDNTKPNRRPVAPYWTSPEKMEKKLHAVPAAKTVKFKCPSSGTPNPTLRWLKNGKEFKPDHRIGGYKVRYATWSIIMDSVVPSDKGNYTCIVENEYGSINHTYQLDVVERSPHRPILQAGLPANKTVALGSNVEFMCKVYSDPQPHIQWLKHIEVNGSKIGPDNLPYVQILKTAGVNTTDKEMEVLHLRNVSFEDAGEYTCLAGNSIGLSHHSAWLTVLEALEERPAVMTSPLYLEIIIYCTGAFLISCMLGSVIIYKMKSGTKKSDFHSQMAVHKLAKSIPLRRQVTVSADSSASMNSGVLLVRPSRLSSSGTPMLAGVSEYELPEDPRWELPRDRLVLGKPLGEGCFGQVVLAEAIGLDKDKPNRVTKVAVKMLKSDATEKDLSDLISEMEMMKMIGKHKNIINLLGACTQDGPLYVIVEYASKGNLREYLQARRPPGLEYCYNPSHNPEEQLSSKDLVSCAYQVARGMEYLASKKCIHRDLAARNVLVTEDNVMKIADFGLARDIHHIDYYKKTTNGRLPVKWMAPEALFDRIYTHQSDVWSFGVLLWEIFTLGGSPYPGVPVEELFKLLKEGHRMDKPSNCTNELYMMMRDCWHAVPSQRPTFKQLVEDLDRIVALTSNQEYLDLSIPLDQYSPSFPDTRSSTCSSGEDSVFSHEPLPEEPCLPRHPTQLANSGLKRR

Kd (FGF receptor-1 (flg) [1]): ~0.285 nM | fold more competitor needed than bFGF or K-FGF-140 (FGF receptor-1 (flg) [2]): ~8 fold
B1: K-FGF (full-length mature human growth factor) (ligand)
chain: APTAPNGTLEAELERRWESLVALSLARLPVAAQPKEAAVQSGAGDYLLGIKRLRRLYCNVGIGFHLQALPDGRIGGAHADTRDSLLELSPVERGVVSIFGVASRFFVAMSSKGKLYGSPFFTDECTFKEILLPNNYNAYESYKYPGMFIALSKNGKTKKGNRVSPTMKVTHFLPRL
notes: also called full-length K-FGF; FGF-4

Kd (FGF receptor-1 (flg) [1]): ~0.095 nM | fold higher affinity than full-length K-FGF (FGF receptor-1 (flg) [1]): ~3 fold | fold higher affinity than bFGF or full-length K-FGF (FGF receptor-2 (bek)): ~3 fold
B2: K-FGF-140 (truncated K-FGF) (ligand)
chain: AAVQSGAGDYLLGIKRLRRLYCNVGIGFHLQALPDGRIGGAHADTRDSLLELSPVERGVVSIFGVASRFFVAMSSKGKLYGSPFFTDECTFKEILLPNNYNAYESYKYPGMFIALSKNGKTKKGNRVSPTMKVTHFLPRL
notes: Unglycosylated, 140 residues, about 14,000 Daltons; also called truncated mammalian growth factor; truncated protein
